The target of one assay is HLA-A*02:03. The experiment in a line: IEDB peptide-MHC binding, purified MHC/competitive/radioactivity; ≥ and ≤ were set here for values at or beyond the usual limits of such assays.
The target in a further assay is HLA-A*02:02. Described as above.
For assay [1], the target named is HLA-A*02:01. The experiment in a line: IEDB peptide-MHC binding, cellular MHC/competitive/fluorescence; ≥ and ≤ were set here for values at or beyond the usual limits of such assays.
In the next assay the target is HLA-A*68:02. The assay is described as above.
Another assay deals with HLA-A*02:06. The assay is described as above.
The target of assay [2] is HLA-A*02:01. The experiment in a line: IEDB peptide-MHC binding, purified MHC/competitive/radioactivity; ≥ and ≤ were set here for values at or beyond the usual limits of such assays.
Setting [3] is: source organism: Vaccinia virus WR.
Where [4] appears, read: source organism: Influenza A virus.
Setting [5] is: source organism: Hepacivirus hominis.

Consider TLLNETAKVI, for which the IC50 with HLA-A*02:03 (setting [3]) amounted to 2.13 µM; with HLA-A*02:02 (setting [3]), 2.86 µM; with HLA-A*02:01 [1] (setting [3]), 16.9 µM; in the assay with HLA-A*68:02 (setting [3]), 6.34 µM; with HLA-A*02:06 (setting [3]), 8.54 µM.
Consider SVQLSNNKYV, for which the concentration for half-maximal inhibition (IC50) came out at 0.82 µM in the assay with HLA-A*02:03 (setting [3]); 1.22 µM with HLA-A*02:02 (setting [3]); 55 µM in the assay with HLA-A*02:01 [1] (setting [3]); 11.3 µM with HLA-A*68:02 (setting [3]); 8.83 µM with HLA-A*02:06 (setting [3]).
For RILSEKRKDT the same measures were 4.16 µM, 0.711 µM, 48.7 µM, 10 µM and 6.87 µM.
For WLTPFEKEFT the same measures were 1.55 µM, 2.37 µM, 15.7 µM, ≥ 70 µM and 30.8 µM.
Taken in the same sequence, the figures for LLKETIQKDI were 0.782 µM, 3.06 µM, 9.03 µM, 13.2 µM and 23.4 µM.
As for TTQIIKLLPFA, the IC50 with HLA-A*02:03 (setting [4]) was 3.43 µM; with HLA-A*02:02 (setting [4]), 2.19 µM; in the assay with HLA-A*02:01 [1] (setting [4]), 5.95 µM; in the assay with HLA-A*68:02 (setting [4]) it was 8.22 µM; with HLA-A*02:06 (setting [4]), 11.6 µM.
In the case of NVKSKLLWFL, the IC50 came to 0.633 µM with HLA-A*02:03 (setting [3]); 2.29 µM in the assay with HLA-A*02:02 (setting [3]); 33.2 µM with HLA-A*02:01 [1] (setting [3]); 7.3 µM in the assay with HLA-A*68:02 (setting [3]); 31.1 µM with HLA-A*02:06 (setting [3]).
For NLYISDYKML the same measures were 1.83 µM, 1.25 µM, 7.88 µM, 30.9 µM and 35.9 µM.
Taken in the same sequence, the figures for PASKKESVI were 1.76 µM, 1.35 µM, 18.8 µM, ≥ 70 µM and 10.3 µM.
Consider EILSNTTKTL, for which the IC50 with HLA-A*02:03 (setting [3]) is 0.101 µM; with HLA-A*02:02 (setting [3]), 0.345 µM; in the assay with HLA-A*02:01 [1] (setting [3]) it was 10.1 µM; with HLA-A*68:02 (setting [3]), 15.1 µM; with HLA-A*02:06 (setting [3]) it was ≥ 70 µM.
Taken in the same sequence, the figures for RLRQDTEDIV were 0.284 µM, 0.134 µM, 5.95 µM, 35.5 µM and 7.49 µM.
Taken in the same sequence, the figures for SLKRFTHTT were 0.0091 µM, 0.825 µM, 5.66 µM, 42 µM and 59.7 µM.
Regarding RLTILGKDA, the IC50 was 3.51 µM with HLA-A*02:03 (setting [4]); 1.56 µM with HLA-A*02:02 (setting [4]); 10.9 µM with HLA-A*02:01 [1] (setting [4]); ≥ 70 µM with HLA-A*68:02 (setting [4]); ≥ 70 µM in the assay with HLA-A*02:06 (setting [4]).
For the sequence RTLFQQMRDVL, the IC50 was 3.83 µM with HLA-A*02:03 (setting [4]); 1.89 µM with HLA-A*02:02 (setting [4]); 13.7 µM in the assay with HLA-A*02:01 [1] (setting [4]); ≥ 70 µM with HLA-A*68:02 (setting [4]); ≥ 70 µM with HLA-A*02:06 (setting [4]).
For YIENTNQGNI, the IC50 with HLA-A*02:03 (setting [3]) is 0.582 µM; with HLA-A*02:02 (setting [3]) it was 1.22 µM; with HLA-A*02:01 [1] (setting [3]), 34.5 µM; with HLA-A*68:02 (setting [3]), 42 µM; in the assay with HLA-A*02:06 (setting [3]), 6.2 µM.
For EMKYALINLV the same measures were 0.283 µM, 1.26 µM, 7.36 µM, ≥ 70 µM and 9.84 µM.
Taken in the same sequence, the figures for TLNEYKQLYT were 0.773 µM, 0.144 µM, 11.5 µM, ≥ 70 µM and ≥ 70 µM.
For IIAVFDSKLI the same measures were 0.595 µM, 0.758 µM, 5.93 µM, 54.7 µM and 8.51 µM.
Take RAMAWTVVNSI: the half-maximal inhibitory concentration (IC50) with HLA-A*02:01 [2] (setting [4]) was found to be 0.624 µM; in the assay with HLA-A*02:03 (setting [4]), 0.066 µM; in the assay with HLA-A*02:02 (setting [4]) it was 0.074 µM; in the assay with HLA-A*68:02 (setting [4]), 7.51 µM; with HLA-A*02:06 (setting [4]) it was 8.06 µM.
Turning to HLRASTTENA, the IC50 with HLA-A*02:03 (setting [3]) is 0.038 µM; in the assay with HLA-A*02:02 (setting [3]), 0.488 µM; with HLA-A*02:01 [1] (setting [3]), 20.1 µM; in the assay with HLA-A*68:02 (setting [3]) it was 36.3 µM; with HLA-A*02:06 (setting [3]) it was ≥ 70 µM.
Turning to NLVQYRILPM, the IC50 with HLA-A*02:01 [2] (setting [3]) is 1.44 µM; with HLA-A*02:03 (setting [3]), 1.33 µM; with HLA-A*02:02 (setting [3]), 3.99 µM; in the assay with HLA-A*68:02 (setting [3]), ≥ 70 µM; with HLA-A*02:06 (setting [3]), 24.5 µM.
On to PLSINVSGV, for which the half-maximal inhibitory concentration (IC50) in the assay with HLA-A*02:03 (setting [3]) came to 0.045 µM; with HLA-A*02:02 (setting [3]), 1.12 µM; with HLA-A*02:01 [1] (setting [3]) it was 6.54 µM; with HLA-A*68:02 (setting [3]), 22.5 µM; with HLA-A*02:06 (setting [3]), 17.9 µM.
With YVLLLFLLLA, the IC50 came to 0.866 µM with HLA-A*02:01 [2] (setting [5]); 0.727 µM with HLA-A*02:03 (setting [5]); 1.05 µM with HLA-A*02:02 (setting [5]); 12 µM in the assay with HLA-A*68:02 (setting [5]); 5.9 µM in the assay with HLA-A*02:06 (setting [5]).

For orientation: IC50 means the point on the concentration scale where inhibition reaches its midpoint.

Source of the values: the Immune Epitope Database (IEDB).
